Data from patent US20250152742A1, “COMPOSITIONS AND METHODS FOR NEUROLOGICAL DISEASES” (Trames Bio, Inc., priority 2022, published 2025).
Where a chain is given by its changes, count along the chain named. In names and notes the source's numbering stands.

Test system: engineered chimeric receptor SEQ ID NO: 33 and its mutants (human α7-nAChR ligand binding domain / human GlyRα1 ion pore domain) in Lenti-X 293T cells
Test: YFP fluorescence quenching anion reporter plate reader assay (percent quench, EC50)
Type: cell-based
Details: for YFP fluorescence quenching using CNL001 (percent quench): receptor named in row; for YFP fluorescence quenching using Varenicline, 3 nM var: ligand Varenicline 3 nM; for YFP fluorescence quenching using Varenicline, 30 nM var: ligand Varenicline 30 nM; for YFP fluorescence quenching using Varenicline, 300 nM var: ligand Varenicline 300 nM; for YFP fluorescence quenching using Varenicline, 500 nM var: ligand Varenicline 500 nM; for YFP fluorescence quenching using Varenicline, 1 uM var: ligand Varenicline 1 uM
Procedure, shortened: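 Lenti-X 293T cells co-expressing an anion-quenchable YFP were transiently transfected with receptor DNA, then ligand was added in NaI-substituted buffer (pH 7.2) after 30 min at 37 °C. Fluorescence was read about 2 min; percent quench = mean of last 10 s over 15 s pre-ligand baseline.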

[1] = 1 nM CNL001, first column so headed
[2] = 1 nM CNL001, second column so headed
[3] = 1 nM brd (TC-5619/Bradanicline)
[4] = 3 nM brd (TC-5619/Bradanicline)
[5] = 10 nM CNL001, first column so headed
[6] = 10 nM CNL001, second column so headed
[7] = 10 nM brd (TC-5619/Bradanicline)
[8] = 30 nM brd (TC-5619/Bradanicline)
[9] = 50 nM CNL001, first column so headed
[10] = 50 nM CNL001, second column so headed
[11] = 100 nM CNL001, first column so headed
[12] = 100 nM CNL001, second column so headed
[13] = 100 nM brd (TC-5619/Bradanicline)
[14] = 300 nM brd (TC-5619/Bradanicline)
[15] = 1 uM CNL001, first column so headed
[16] = 1 uM CNL001, second column so headed

B1: CODA1053: engineered receptor: R101M, L131A in SEQ ID NO: 33 (protein)
chain: MRCSPGGVWLALAASLLHVSLQGEFQRKLYKELVKNYNPLERPVANDSQPLTVYFSLSLLQIMDVDEKNQVLTTNIWLQMSWTDHYLQWNVSEYPGVKTVMFPDGQIWKPDILLYNSADERFDATFHTNVAVNSSGHCQYLPPGIFKSSCPMDLKNFPMDVQTCKLKFGSWSYGGWSLDLQMQEADISGYIPNGEWDLVGIPGKRSERFYECCKEPYPDVTFTVTMRRRMGYYLIQMYIPSLLIVILSWISFWINMDAAPARVGLGITTVLTMTTQSSGSRASLPKVSYVKAIDIWMAVCLLFVFSALLEYAAVNFVSRQHKELLRFRRKRRHHKSPMLNLFQEDEAGEGRFNFSAYGMGPACLQAKDGISVKGANNSNTTNPPPAPSKSPEEMRKLFIQRAKKIDKISRIGFPMAFLIFNMFYWIIYKIVRREDVHNQ
modifications: synthetic sequence of chimeric LGIC
[1]
  YFP fluorescence quenching using CNL001 (percent quench): −8.554%
[2]
  YFP fluorescence quenching using CNL001 (percent quench): −13.711%
[3]
  YFP fluorescence quenching using TC-5619/Bradanicline (percent quench): 0.008%
[4]
  YFP fluorescence quenching using TC-5619/Bradanicline (percent quench): 43.21%
[5]
  YFP fluorescence quenching using CNL001 (percent quench): 39.631%
[6]
  YFP fluorescence quenching using CNL001 (percent quench): 66.809%
[7]
  YFP fluorescence quenching using TC-5619/Bradanicline (percent quench): 77.672%
[8]
  YFP fluorescence quenching using TC-5619/Bradanicline (percent quench): 76.277%
[9]
  YFP fluorescence quenching using CNL001 (percent quench): 82.122%
[10]
  YFP fluorescence quenching using CNL001 (percent quench): 82.031%
50 nM abt (ABT-126)
  YFP fluorescence quenching using ABT-126 (percent quench): −27.01%
[11]
  YFP fluorescence quenching using CNL001 (percent quench): 83.312%
[12]
  YFP fluorescence quenching using CNL001 (percent quench): 83.986%
100 nM abt (ABT-126)
  YFP fluorescence quenching using ABT-126 (percent quench): −18.76%
[13]
  YFP fluorescence quenching using TC-5619/Bradanicline (percent quench): 76.856%
300 nM abt (ABT-126)
  YFP fluorescence quenching using ABT-126 (percent quench): −17.8%
[14]
  YFP fluorescence quenching using TC-5619/Bradanicline (percent quench): 75.32%
[15]
  YFP fluorescence quenching using CNL001 (percent quench): 84.363%
[16]
  YFP fluorescence quenching using CNL001 (percent quench): 83.877%
1 uM abt (ABT-126)
  YFP fluorescence quenching using ABT-126 (percent quench): −6.55%
10 uM ach (acetylcholine)
  YFP fluorescence quenching (percent quench): −3.98%
100 uM ach (acetylcholine)
  YFP fluorescence quenching (percent quench): −11%
300 uM ach (acetylcholine)
  YFP fluorescence quenching (percent quench): −7.92%
500 uM ach (acetylcholine)
  YFP fluorescence quenching (percent quench): 7.36%
1 mM ach (acetylcholine)
  YFP fluorescence quenching (percent quench): 57.28%
3 mM ach (acetylcholine)
  YFP fluorescence quenching (percent quench): 60.54%
10 mM ach (acetylcholine)
  YFP fluorescence quenching (percent quench): 79.46%
First column
  YFP fluorescence quenching using Varenicline, 3 nM var: 74.835
  YFP fluorescence quenching using Varenicline, 30 nM var: 77.608
  YFP fluorescence quenching using Varenicline, 300 nM var: 80.71
  YFP fluorescence quenching using Varenicline, 500 nM var: 78.709
  YFP fluorescence quenching using Varenicline, 1 uM var: 79.688
Second column
  YFP fluorescence quenching using Varenicline, 3 nM var: 76.119
  YFP fluorescence quenching using Varenicline, 30 nM var: 79.015
  YFP fluorescence quenching using Varenicline, 300 nM var: 79.002
  YFP fluorescence quenching using Varenicline, 500 nM var: 78.884
  YFP fluorescence quenching using Varenicline, 1 uM var: 80

B2: CODA1055: engineered receptor: R101W, Y115E, Y210W in SEQ ID NO: 33 (protein)
chain: B1 chain with M101W, Y115E, A131L, Y210W
modifications: synthetic sequence of chimeric LGIC
[1]
  YFP fluorescence quenching using CNL001 (percent quench): −12.889%
[2]
  YFP fluorescence quenching using CNL001 (percent quench): −13.295%
[3]
  YFP fluorescence quenching using TC-5619/Bradanicline (percent quench): −8.113%
[4]
  YFP fluorescence quenching using TC-5619/Bradanicline (percent quench): −11.136%
[5]
  YFP fluorescence quenching using CNL001 (percent quench): −10.401%
[6]
  YFP fluorescence quenching using CNL001 (percent quench): −7.981%
[7]
  YFP fluorescence quenching using TC-5619/Bradanicline (percent quench): 38.755%
30 nM TC-6683
  YFP fluorescence quenching using TC-6683 (percent quench): −30.056%
[8]
  YFP fluorescence quenching using TC-5619/Bradanicline (percent quench): 39.111%
[9]
  YFP fluorescence quenching using CNL001 (percent quench): −1.972%
[10]
  YFP fluorescence quenching using CNL001 (percent quench): −1.661%
50 nM abt (ABT-126)
  YFP fluorescence quenching using ABT-126 (percent quench): −21.36%
[11]
  YFP fluorescence quenching using CNL001 (percent quench): 0.277%
[12]
  YFP fluorescence quenching using CNL001 (percent quench): 4.325%
100 nM abt (ABT-126)
  YFP fluorescence quenching using ABT-126 (percent quench): −22.28%
[13]
  YFP fluorescence quenching using TC-5619/Bradanicline (percent quench): 61.378%
300 nM TC-6683
  YFP fluorescence quenching using TC-6683 (percent quench): −30.801%
300 nM abt (ABT-126)
  YFP fluorescence quenching using ABT-126 (percent quench): −14.63%
[14]
  YFP fluorescence quenching using TC-5619/Bradanicline (percent quench): 52.398%
[15]
  YFP fluorescence quenching using CNL001 (percent quench): 2.88%
[16]
  YFP fluorescence quenching using CNL001 (percent quench): 3.259%
1 uM abt (ABT-126)
  YFP fluorescence quenching using ABT-126 (percent quench): −7.34%
3 uM TC-6683
  YFP fluorescence quenching using TC-6683 (percent quench): −25.558%
30 uM TC-6683
  YFP fluorescence quenching using TC-6683 (percent quench): −18.295%
100 uM TC-6683
  YFP fluorescence quenching using TC-6683 (percent quench): −17.554%
100 uM ach (acetylcholine)
  YFP fluorescence quenching (percent quench): −15.63%
300 uM ach (acetylcholine)
  YFP fluorescence quenching (percent quench): −12.05%
500 uM ach (acetylcholine)
  YFP fluorescence quenching (percent quench): −12.87%
1 mM ach (acetylcholine)
  YFP fluorescence quenching (percent quench): −11.55%
3 mM ach (acetylcholine)
  YFP fluorescence quenching (percent quench): 12.68%
10 mM ach (acetylcholine)
  YFP fluorescence quenching (percent quench): 37.58%
First column
  YFP fluorescence quenching using Varenicline, 3 nM var: 0.468
  YFP fluorescence quenching using Varenicline, 30 nM var: −15.532
  YFP fluorescence quenching using Varenicline, 300 nM var: −17.027
  YFP fluorescence quenching using Varenicline, 500 nM var: −13.343
  YFP fluorescence quenching using Varenicline, 1 uM var: −6.604
Second column
  YFP fluorescence quenching using Varenicline, 3 nM var: −10.015
  YFP fluorescence quenching using Varenicline, 30 nM var: −14.462
  YFP fluorescence quenching using Varenicline, 300 nM var: −15.59
  YFP fluorescence quenching using Varenicline, 500 nM var: −10.702
  YFP fluorescence quenching using Varenicline, 1 uM var: −7.612

B3: CODA1056: engineered receptor: R101F, Y115E, Y210W in SEQ ID NO: 33 (protein)
chain: B1 chain with M101F, Y115E, A131L, Y210W
modifications: synthetic sequence of chimeric LGIC
[1]
  YFP fluorescence quenching using CNL001 (percent quench): −8.104%
[2]
  YFP fluorescence quenching using CNL001 (percent quench): −12.153%
[3]
  YFP fluorescence quenching using TC-5619/Bradanicline (percent quench): −7.894%
[4]
  YFP fluorescence quenching using TC-5619/Bradanicline (percent quench): −11.812%
[5]
  YFP fluorescence quenching using CNL001 (percent quench): −10.462%
[6]
  YFP fluorescence quenching using CNL001 (percent quench): −4.735%
[7]
  YFP fluorescence quenching using TC-5619/Bradanicline (percent quench): 36.211%
30 nM TC-6683
  YFP fluorescence quenching using TC-6683 (percent quench): −19.889%
[8]
  YFP fluorescence quenching using TC-5619/Bradanicline (percent quench): 40.624%
[9]
  YFP fluorescence quenching using CNL001 (percent quench): −8.617%
[10]
  YFP fluorescence quenching using CNL001 (percent quench): −1.606%
50 nM abt (ABT-126)
  YFP fluorescence quenching using ABT-126 (percent quench): −20.96%
[11]
  YFP fluorescence quenching using CNL001 (percent quench): −1.243%
[12]
  YFP fluorescence quenching using CNL001 (percent quench): 1.838%
100 nM abt (ABT-126)
  YFP fluorescence quenching using ABT-126 (percent quench): −21.95%
[13]
  YFP fluorescence quenching using TC-5619/Bradanicline (percent quench): 65.869%
300 nM TC-6683
  YFP fluorescence quenching using TC-6683 (percent quench): −22.443%
300 nM abt (ABT-126)
  YFP fluorescence quenching using ABT-126 (percent quench): −10.96%
[14]
  YFP fluorescence quenching using TC-5619/Bradanicline (percent quench): 59.661%
[15]
  YFP fluorescence quenching using CNL001 (percent quench): −0.567%
[16]
  YFP fluorescence quenching using CNL001 (percent quench): 4.663%
1 uM abt (ABT-126)
  YFP fluorescence quenching using ABT-126 (percent quench): 10.79%
3 uM TC-6683
  YFP fluorescence quenching using TC-6683 (percent quench): −12.623%
30 uM TC-6683
  YFP fluorescence quenching using TC-6683 (percent quench): −10.728%
100 uM TC-6683
  YFP fluorescence quenching using TC-6683 (percent quench): −10.959%
100 uM ach (acetylcholine)
  YFP fluorescence quenching (percent quench): −20.55%
300 uM ach (acetylcholine)
  YFP fluorescence quenching (percent quench): −19.32%
500 uM ach (acetylcholine)
  YFP fluorescence quenching (percent quench): −19.75%
1 mM ach (acetylcholine)
  YFP fluorescence quenching (percent quench): −14.08%
3 mM ach (acetylcholine)
  YFP fluorescence quenching (percent quench): 14.07%
10 mM ach (acetylcholine)
  YFP fluorescence quenching (percent quench): 25.7%
